The target in test [1] is human GLP-1 receptor (human) (UniProt P43220). The test can be described thus: cell-based or functional assay.
In test [2] the target is FcRn. The test can be described thus: FcRn binding assay (method not described); Aggregation Study, albiglutide in NaCl + cysteine formulation, stored at 30°C for 2 months.
Test [3] deals with FcRn. The test can be described thus: FcRn binding assay (method not described); Aggregation Study, albiglutide in NaCl + cysteine formulation, stored at 2-8°C for 2 months.
Test [4] addresses FcRn. The test can be described thus: FcRn binding assay (method not described); Aggregation Study, albiglutide in NaCl, octanoate and cysteine formulation, stored at 30°C for 2 months.
For test [5], the target named is FcRn. Description: FcRn binding assay (method not described); Aggregation Study, albiglutide in NaCl, octanoate and cysteine formulation, stored at 2-8°C for 2 months.

Data on one substance can be found in patent US20180369341A1.

Chain of UniProt P43220 (P43220 24-463): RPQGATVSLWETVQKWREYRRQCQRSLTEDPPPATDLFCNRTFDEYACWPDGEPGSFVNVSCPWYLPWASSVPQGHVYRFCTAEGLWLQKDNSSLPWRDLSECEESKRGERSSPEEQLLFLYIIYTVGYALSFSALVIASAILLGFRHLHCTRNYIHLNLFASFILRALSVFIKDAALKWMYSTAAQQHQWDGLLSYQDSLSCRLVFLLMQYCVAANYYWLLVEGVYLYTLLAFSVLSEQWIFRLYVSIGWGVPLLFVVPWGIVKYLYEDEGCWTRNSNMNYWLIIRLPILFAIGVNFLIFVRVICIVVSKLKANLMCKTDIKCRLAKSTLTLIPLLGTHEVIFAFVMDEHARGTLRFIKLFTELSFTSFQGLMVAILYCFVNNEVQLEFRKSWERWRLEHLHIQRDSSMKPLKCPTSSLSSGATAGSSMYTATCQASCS

In test [1], “albiglutide (from UniProt P02768 25-609) (ligand)” registered a Bioassay potency; Aggregation Study, all formulations, 2 months 30°C (lower end) of 130%; a Bioassay potency; Aggregation Study, all formulations, 2 months 30°C (upper end) of 160%; a Bioassay potency; PFS Study, Variations A and B, 1 month 40°C of 180%; a Bioassay potency; PFS Study, all variations, 3 months 30°C of 130%. The decrease in FcRn binding in the test with FcRn [2] is 23%. For the same substance, the decrease in FcRn binding with FcRn [3] came to 6%. For the same substance, in the test with FcRn [4], the decrease in FcRn binding came to 23%. In addition, the decrease in FcRn binding with FcRn [5] worked out at 16%.
